Common to all, as to type: physicochemical
Series [1] can be described thus: Fluorescence intensity of riboflavin solutions under ultraviolet irradiation. The following applies: aqueous solution; compared with untreated riboflavin solutions; higher intensity = degradation. As for the experimental part:
Dehydrated riboflavin was untreated, sterilized by autoclave, or sterilized with ozone. Samples were then dissolved in water to prepare six riboflavin solutions, i.e., solution 1 (100 mg/mL, autoclaved), solution 2 (100 mg/mL, ozone-sterilized), solution 3 (100 mg/mL, untreated), solution 4 (50 mg/mL, autoclaved), solution 5 (50 mg/mL, ozone-sterilized), and solution 6 (50 mg/mL, untreated). Fluorescence intensities of the six solutions were observed under ultraviolet irradiation.

Series [2] can be described thus: Acrylamide gel electrophoresis of sterilized pepsin and bromelain. The following applies: 5% acrylamide gel, Coomassie blue. As for the experimental part: Samples of two dehydrated enzymes, i.e., pepsin and bromelain, were untreated, sterilized by autoclave, or sterilized with ozone. Subsequently, the samples were dissolved acetate solutions, analyzed by 5% acrylamide gel electrophoresis, and stained with Coomassie blue.

Series [3] is described as follows: Molecular property of sterilized collagen by acrylamide gel electrophoresis. As for the experimental part:
Molecular Property of Sterilized Collagen: equivalent amounts of dehydrated collagen were subjected to the following respective treatments: (1) non-treatment; (2) treatment with ozone gas, as described in Example 1; (3) treatment with ultraviolet irradiation for 12 hours; (4) immersion in 75 vol. % ethanol for 4 hours; (5) immersion in 2 vol. % formaldehyde for 1 hour; or (6) autoclave sterilization under high-temperature and high-pressure. Afterwards, each of the samples from the aforementioned treatments was dissolved in acetate solution, analyzed by 5% acrylamide gel electrophoresis, and stained with Coomassie blue.

The nature of series [4]: Capillary electrochromatography of sterilized hyaluronan. The following applies: absorbance at 194 nm, corresponds to amount of hyaluronan. As for the experimental part: Two equivalent amounts of hyaluronan (average molecular weight: 58 kDa), were respectively subjected to ozone sterilization and autoclave sterilization. Subsequently, the sterilized samples were analyzed by capillary electrochromatography using a fused silica capillary and a 50 mM phosphate buffer (pH 2.99). Separations were carried out at 25 kV and a column temperature of 25° C. Absorbance was detected at 194 nm. Shown in Table 3 below are the areas under the peak for each of the two samples, which correspond to the amount of hyaluronan contained therein. An untreated sample was included as the control.

In the case of `Cc1cc2nc3c(=O)[nH]c(=O)nc-3n(C[C@H](O)[C@H](O)[C@H](O)CO)c2cc1C` [solution 1, riboflavin], the “fluorescence intensity under ultraviolet irradiation” value in series [1] was “higher than those of the untreated control solutions”.

As for `Cc1cc2nc3c(=O)[nH]c(=O)nc-3n(C[C@H](O)[C@H](O)[C@H](O)CO)c2cc1C` [solution 4, riboflavin], the “fluorescence intensity under ultraviolet irradiation” value in series [1] is reported as “higher than those of the untreated control solutions”.

bromelain: the “band in electrophoresis gel” value in series [2] (autoclaved) was “only showed an indistinct band”; in series [2] (ozone-treated), “the same band as the control”.

As to collagen, the “bands of α1, α2 and β chains in electrophoresis gel” value in series [3] (autoclave sterilization, high-temperature and high-pressure, lane (6)) is “mostly degraded”; in series [3] (immersion in 2 vol. % formaldehyde for 1 hour, lane (5)), “showed no bands”; in series [3] (immersion in 75 vol. % ethanol for 4 hours, lane (4)) it was “only showed indistinct bands”; in series [3] (treated by ozone gas, lane (2), 5% acrylamide gel, Coomassie blue), “substantially the same as the control”; in series [3] (ultraviolet irradiation for 12 hours, lane (3)), “partially polymerized and cleaved”.

As to hyaluronan, the “Area under the Peak” value worked out at 633930 in series [4] (Autoclaved) and 814725 in series [4] (Ozone-treated).

Regarding pepsin, the “band in electrophoresis gel” value in series [2] (autoclaved) is on record as “a band with substantially reduced stain density”; in series [2] (ozone-treated) it was “a single band that was the same as that shown by untreated pepsin”.

The values above are taken from patent US11484611B2, “Method for sterilizing biological materials” (FM&G Biomed Co., Ltd., priority 2006, dated 2022).
